Patent publication US20090317382A1 (Genmab, published 2009)

B1: IgG1-637 (antibody)
heavy: not shown
VL: EIELTQPHSVSESPGKTVTISCTRSSGSIASNYVQWYQQRPGSSPTTVIYEDNQRPSGVPDRFSGSIDSSSNSASLTISGLKTEDEADYYCQSYDSNSGGRVFGGGTKLTVL
B2: IgG4-637 (antibody)
heavy: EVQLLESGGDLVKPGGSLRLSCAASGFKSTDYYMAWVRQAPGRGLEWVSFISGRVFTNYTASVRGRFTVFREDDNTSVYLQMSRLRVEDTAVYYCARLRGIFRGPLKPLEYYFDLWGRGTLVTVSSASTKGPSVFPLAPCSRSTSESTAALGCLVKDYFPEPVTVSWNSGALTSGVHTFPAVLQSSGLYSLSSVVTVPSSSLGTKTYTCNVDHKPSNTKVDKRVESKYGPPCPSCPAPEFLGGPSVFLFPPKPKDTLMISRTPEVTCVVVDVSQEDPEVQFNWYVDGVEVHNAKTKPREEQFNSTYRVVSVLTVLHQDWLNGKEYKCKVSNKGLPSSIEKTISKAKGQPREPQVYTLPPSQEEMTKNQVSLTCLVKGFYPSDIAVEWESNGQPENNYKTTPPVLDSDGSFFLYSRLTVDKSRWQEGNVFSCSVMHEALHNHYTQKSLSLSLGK
light: EIELTQPHSVSESPGKTVTISCTRSSGSIASNYVQWYQQRPGSSPTTVIYEDNQRPSGVPDRFSGSIDSSSNSASLTISGLKTEDEADYYCQSYDSNSGGRVFGGGTKLTVLGQPKAAPSVTLFPPSSEELQANKATLVCLISDFYPGAVTVAWKADSSPVKAGVETTTPSKQSNNKYAASSYLSLTPEQWKSHRSYSCQVTHEGSTVEKTVAPTECS
notes: also called anti-MG

Experiments:
[1] = molecular target: T1, human AChR from membrane extracts of TE671 cells (human, UniProt P02708 21-457; P11230 24-501; P07510 23-517; Q07001 22-517)
[2] = molecular target: T1, human AChR from membrane extracts of …; remark: listed apart in the source
[3] = molecular target: T2, AChR of rhesus monkeys (rhesus monkey (Macaca mulatta)); test: immunohistochemistry of endplates in human and monkey biopsies, qualitative comparison of staining intensities
T2 construct: In muscle tissue (sections of biopsies, or in the living animal); also called macaque AChR; monkey receptor

[4] = molecular target: T3, C1q (3% rhesus serum) (Macaca mulatta); test: ELISA: IgG coated at varied concentration (the concentration is that of the coating), C1q binding read as OD405, 3% rhesus serum
T3 construct: native protein in 3% serum; also called rhesus C1q; C1q of rhesus monkey serum
Protocol: (§1) Subsequently, plates were emptied. For the C3 and C4 ELISAs the wells were washed 3 times with 200 μl PBST (PBS supplemented with 0.05% (v/v) tween-20). Subsequently, for C1q ELISA, wells were incubated with 2 μg/mi human C1q (Quidel, San Diego, Calif., USA, A400) in C1q buffer (100 μl/well, 37° C., 1 h). […] After washing the plates (3×) with PBST for the C3 and C4 ELISA and C1q buffer for the C1q ELISA, for the C1q ELISA wells were incubated with rabbit anti-human C1q (DAKO, Glostrup, Denmark, A0136), diluted in C1q buffer (1:1000, 100 μl/well, room temperature, 1 h). […] After washing the plates (3×) with PBST for the C3 and C4 ELISA and C1q buffer for the C1q ELISA, for the C1q ELISA wells were incubated with HRP-conjugated swine anti-rabbit IgG-Fc (DAKO, P0399) diluted in ELISA buffer (1:2500, 100 μl/well, room temperature, 1 h). […] Absorbance was measured at 405 nm in an ELISA plate reader (Biotek Instruments Inc., Winooski, USA). To analyze, if complement activation by human IgG isotypes depends on the source of the complement, both human and rhesus serum were tested.

[5] = molecular target: T4, human C1q (human, UniProt P02745 23-245; P02746 28-253; P02747 29-245); test: ELISA: IgG coated at varied concentration (the concentration is that of the coating), C1q binding read as OD405, 3% human serum
T4 construct: The method names purified human C1q at 2 µg/ml; also called C1q (Quidel, A400); first component of the classical complement system
Protocol: as §1

[6] = molecular target: T1, human AChR from membrane extracts of …; remark: listed apart in the source
[7] = molecular target: T4, human C1q; test: ELISA: IgG coated at varied concentration, C1q binding read as OD405; sheet heading '3% human serum'

T4 sequence (P02745 23-245 limits assumed, chain 1 of 3): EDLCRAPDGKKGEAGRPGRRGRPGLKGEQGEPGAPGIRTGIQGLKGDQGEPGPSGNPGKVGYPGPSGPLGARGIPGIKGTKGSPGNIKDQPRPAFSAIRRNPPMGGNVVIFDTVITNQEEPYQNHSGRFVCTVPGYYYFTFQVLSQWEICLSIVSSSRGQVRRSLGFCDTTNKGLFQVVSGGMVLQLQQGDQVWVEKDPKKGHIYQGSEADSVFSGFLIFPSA
T4 sequence (P02746 28-253 limits assumed, chain 2 of 3): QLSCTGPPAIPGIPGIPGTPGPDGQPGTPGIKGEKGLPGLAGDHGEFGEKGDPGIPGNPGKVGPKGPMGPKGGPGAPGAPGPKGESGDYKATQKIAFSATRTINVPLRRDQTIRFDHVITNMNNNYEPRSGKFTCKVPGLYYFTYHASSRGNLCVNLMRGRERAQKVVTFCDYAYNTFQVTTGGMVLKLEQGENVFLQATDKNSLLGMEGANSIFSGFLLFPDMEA
T4 sequence (P02747 29-245 limits assumed, chain 3 of 3): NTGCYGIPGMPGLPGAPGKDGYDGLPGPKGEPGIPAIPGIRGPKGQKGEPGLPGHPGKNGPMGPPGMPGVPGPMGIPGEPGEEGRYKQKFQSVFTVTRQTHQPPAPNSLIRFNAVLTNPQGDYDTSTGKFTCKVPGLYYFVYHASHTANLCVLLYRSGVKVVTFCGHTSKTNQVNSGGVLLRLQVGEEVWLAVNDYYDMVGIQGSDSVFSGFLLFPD

Binder	IC50 (read off the curve) [1]	EC50 (read off the curve) [2]	fold reduced affinity compared to human receptor [3]	EC50 (read off the curve) [4]	EC50 (read off the curve) [5]	Kd [6]	precipitation of the flag tagged antibody, percent remaining at two fold excess [6]	binding result [7]
B1	~10 nM	~3 nM	~10 fold	~2 µg/mL	~2 µg/mL	~1.7 nM	~50%	–
B2	~10 nM	~3 nM	–	–	–	~1.7 nM	~50%	no binding
